Data as given in patent US20250073303A1, “TDP-43 Interference Peptides, Methods, and Uses Thereof” (The University of British Columbia, priority 2022, published 2025).

Legend:
[1] = test system: mice with LPS plus sciatic nerve axotomy; test: LPS (5 mg/kg) plus sciatic nerve axotomy in mice: Fluoro Jade C neurodegeneration staining; type: in vivo, mouse; settings: 20 mg/kg daily i.p., day 7
Experimental: FIG. 14: Example peptide D prevents neurodegeneration in ventral horn of spinal cord of mice with LPS plus sciatic nerve axotomy. Mice underwent LPS administration (5 mg/kg, i.p.) plus sciatic nerve axotomy on day 0 and tissues were collected and fixed on day 7 after the surgical procedure. Fluoro Jade (neurodegeneration marker) staining of ventral horn of spinal cord of mice in each indicated treatment group (upper panel) and counterstained with DAPI (lower panel). 20 mg/kg of peptide D was injected daily through i.p. route.
Neurodegeneration in the lumbar spinal cord of mice 7 days after administration of LPS plus surgery was then evaluated using Fluoro Jade C staining. Animals were divided into two peptide D treatment groups. In one group, peptide D administration started on the day of surgery, and in the other group, peptide D treatment started at 3 days post-surgery when the TDP-43 proteinopathies were at their maximum.

[2] = target: TDP-43 (Homo sapiens, UniProt Q13148); test: Sodium arsenite induced TDP-43 and phosphoTDP-43 accumulation and PARP cleavage in SH-SY5Y cells; type: cell-based; settings: 1 mM sodium arsenite for 3 hours
Sequence of TDP-43 (Homo sapiens, UniProt Q13148) (Q13148 whole entry): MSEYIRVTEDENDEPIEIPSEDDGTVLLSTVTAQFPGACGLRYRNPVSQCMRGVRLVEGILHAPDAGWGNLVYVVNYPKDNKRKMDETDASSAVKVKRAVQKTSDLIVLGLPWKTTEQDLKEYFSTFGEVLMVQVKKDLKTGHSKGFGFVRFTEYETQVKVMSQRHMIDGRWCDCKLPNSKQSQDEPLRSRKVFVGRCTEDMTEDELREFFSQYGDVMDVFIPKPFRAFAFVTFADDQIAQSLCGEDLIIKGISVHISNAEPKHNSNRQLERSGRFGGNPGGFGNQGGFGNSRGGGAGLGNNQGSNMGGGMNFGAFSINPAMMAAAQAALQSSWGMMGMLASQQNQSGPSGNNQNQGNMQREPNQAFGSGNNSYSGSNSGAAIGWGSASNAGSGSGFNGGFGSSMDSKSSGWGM
Experimental: FIG. 5. Synthetic peptides derived from CK-1δ block TDP-43 phosphorylation, aggregation and partially rescue cell death in different cellular models. […] DAPI (Blue) staining was used to determine nuclear localization. […] Representative immunoblots showing efficient siRNA knockdown of CK-1δ in SH-SY5Y cells. […] (C) Representative immunoblots showing effective blocking of TDP-43 phosphorylation and aggregation by 20 μM peptide mixture in SH-SY5Y cells, but not in HEK293 cells with ethacrynic acid (EA) treatment. (D) Dose response of peptide mixture on blocking TDP-43 aggregation in primary cultured neurons treated with 20 μM ethacrynic acid. Quantification of insoluble TDP-43 expression was shown on the right. […] The significance among the groups was calculated by one-way ANOVA, *p<0.05. The statistical significance of the difference between scramble peptides and peptide mixture groups was calculated by student's t test, #p<0.05. […] Significant differences among the groups was calculated by One-way ANOVA, *p<0.05. Significance between scramble peptides and peptide mixture group was calculated by student's t test, #p<0.05. (G) Peptide D and the peptide mixture reduces TDP-43 phosphorylation and aggregation in SH-SY5Y cells following sodium arsenite treatment. […] TDP-43, phosphoTDP-43, PARP, and actin in the soluble and insoluble fraction were analyzed by western blotting. […]

[3] = target: TDP-43 (Mus musculus, UniProt Q921F2); test: LPS (5 mg/kg) plus sciatic nerve axotomy in mice: TDP-43 and phosphoTDP-43 aggregates; type: in vivo; design: from tissue; host or cells: ventral lumbosacral spinal cord of mice, axotomy side; settings: LPS 5 mg/kg i.p. plus axotomy, day 3 post-surgery, 10 and 20 mg/kg once daily i.p.
Sequence of TDP-43 (Mus musculus, UniProt Q921F2) (Q921F2 whole entry): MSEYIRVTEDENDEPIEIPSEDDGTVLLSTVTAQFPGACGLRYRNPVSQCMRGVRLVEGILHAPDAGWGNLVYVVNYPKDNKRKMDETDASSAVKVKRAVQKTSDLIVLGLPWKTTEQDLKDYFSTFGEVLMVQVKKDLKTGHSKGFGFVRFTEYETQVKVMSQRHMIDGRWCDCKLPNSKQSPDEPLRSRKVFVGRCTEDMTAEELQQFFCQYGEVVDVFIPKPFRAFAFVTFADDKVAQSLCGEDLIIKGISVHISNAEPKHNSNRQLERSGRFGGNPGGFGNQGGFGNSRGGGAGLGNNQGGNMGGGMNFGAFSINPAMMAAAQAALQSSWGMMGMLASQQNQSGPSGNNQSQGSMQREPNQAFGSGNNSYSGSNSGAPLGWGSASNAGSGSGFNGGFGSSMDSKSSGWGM
Experimental: FIG. 13: Example peptide D dose dependently reduces TDP-43 and phosphoTDP-43 aggregates in lumbar spinal cord of mice with LPS plus sciatic nerve axotomy. Western blot analysis of TDP-43 and phosphoTDP-43 expression in the soluble and insoluble fraction of ipsilateral lumbar spinal cord tissue that was collected in mice three days post LPS (5 mg/kg) plus sciatic nerve axotomy procedure. Group 1: Non-surgical mice. Group 2: Control mice with LPS plus sciatic nerve axotomy. Group 3: 10 mg/kg of peptide D treatment (once daily, i.p.) in mice with LPS treatment plus sciatic nerve axotomy. Group 4: 20 mg/kg of peptide D treatment (once daily, i.p.) in mice with LPS treatment plus sciatic nerve axotomy.
This mouse model was further optimized by adding one dose of lipopolysaccharide (LPS) injection (5 mg/kg, i.p.) when performing surgery. LPS injection aggravated the observed TDP-43 proteinopathy as assessed at day 3 post-surgery.

peptide D: candidate peptide from a CK-1δ binding region for TDP-43, truncated HIV-1 TAT domain added at the N-terminal (YGRKKRRQRRRGFSYDYVFDWNMLK)
neurodegeneration in the ventral horn of spinal cord (Fluoro Jade C) ([1]; administration started on the day of surgery): less neurodegeneration | neurodegeneration in the ventral horn of spinal cord (Fluoro Jade C) ([1]; treatment started at 3 days post-surgery): less neurodegeneration | PARP cleavage caused by sodium arsenite [2]: less PARP cleavage | insoluble TDP-43 and phosphoTDP-43 [2]: reducing | TDP-43 and phosphoTDP-43 aggregation [3]: reduced TDP-43 and phosphoTDP-43 aggregation in a dose dependent manner
